Experiment: soluble on expression in E. coli; label from the status in PepcDB or PDB records

| Sequence | soluble on expression in E. coli |
| --- | --- |
| MYLQLLKPTLLRCSTRPSSSGAYTRSPIDQKWAAMAKKAMKGREADTLTWNTPEGIPIKPLYLRSDRDCDAQRSVELPGQFPFTRGPYPTMYTQRPWTIRQYAGFSTVEESNKFYKENIKAGQQGLSVAFDLATHRGYDSDNPRVFGDVGMAGVAVDSVEDMRQLFDGINLEKMSVSMTMNGAVVPVLAMYVVAAEEAGVSRKLLAGTIQNDILKEFMVRNTYIYPPEPSMRIIGDIFAYTSREMPKFNSISISGYHMQEAGADAVLEMAFTIADGIQYCETGLNAGLTIDAFAPRLSFFWGISMNFYMEIAKMRAARRLWANLIKERFSPKSDKSMMLRTHSQTSGWSLTEQDPYNNIIRTTIEAMASVFGGTQSLHTNSFDEALGLPTKFSARIARNTQIIIQEESGICNVADPWGGSYMMESLTDEIYEKALAVIKEIDELGGMAKAVASGMTKLKIEEAAAKKQARIDAGKDVIVGVNKYRLDHEQQVEVLKIDNAKVREEQCAKLNHIRATRDAEKAQKALDAITEGARGNGNLMELAIEAARARCTVGEISDAMEKVFNRHAAVNRLVSGAYKSEFGETSEMSQVLERVKSFADRDGRQPRIMVAKMGQDGHDRGAKVIATGFADLGFDVDVGPLFQTPLEAAQQAVDADVHVIGASSLAAGHLTLIPQLIGELKKLGRPDILVVAGGVIPPQDYKELYDAGVALVFGPGTRLPACANQILEKLEANLPEAPGKAASR | not soluble |
| MYNIGDKIVYPMHGAGVIESIEEREILGKKQSYYVVKIPIGEMKVLIPIKNVDGIGIREVISEEDADKVFLILKNKALPSNTNWNKRYRENMSKIKSGNIFEVADVVRCLMLRDKLKGLSTGEKKMLNSAKQILISELVLAKNMNPMEIEGMIDKYIS | soluble |
| MYPDDSLTLHTDLYQINMMQVYFDQGIHNKKAVFEVYFRQQPFKNGYAVFAGLERIVNYLEDLRFSDSDIAYLESLGYHGAFLDYLRNFKLELTVRSAQEGDLVFANEPIVQVEGPLAQCQLVETALLNIVNYQTLVATKAARIRSVIEDEPLMEFGTRRAQEMDAAIWGTRAAVIGGANGTSNVRAGKLFDIPVLGTHAHALVQVYGNDYEAFKAYAATHKNCVFLVDTYDTLRIGVPAAIQVARELGDQINFMGVRIDSGDIAYISKKVRQQLDEAGFTEAKIYASNDLDENTILNLKMQKAKIDVWGVGTKLITAYDQPALGAVYKIVAIEDETGQMRNTIKLSNNAEKVSTPGKKQVWRITSREKGKSEGDYITYDGVDISDMTEIKMFHPTYTYIKKTVRNFDAVPLLVDIFKEGILVYNLPSLTDIQDYARKEFDKLWDEYKRVLNPQHYPVDLARDVWQDKMDLIDKMRKEALGEGEEE | not soluble |
| MYQAVVFFDLDGTLMQDDKTVAASSVRAIQQLRANHVLPVIATGRNVFEVQDVMTTTGIDSIVSANGSYVAYQGQFLSAHELDKELLTDITHFANRQQNALAYYNNAGFALSHRDALTTSNYRALRQTARVAPHFYEHQHINFLLTFDPLNAAQYRQRYRGRLHFVRNNPRALDTMQWGVSKAVGIQDILTKAHLTKVPTYAFGDQLNDIEMFRMIQTPIAMGNGHPQVKQLARYVTADNMHGGIAQGLQHFDLI | not soluble |
| MYQIISDSACDLTELYVKKHNIEIVPLTASLDGETYLKDKTEINRKDFYTTMVENPDIFPKTSLPSVESYETVFRKYAEQNIPVVCFTISIHLSGSYNSASMAKDVVEEDYPDAKIVVLDSQQDTVSQALIIDQVVRMQNDGIPFDTMIENTKKLMGTARIFFTVGSLDYLRIGGRIGKMAISATGKLGIKPIIILKDGEVNLGGVGRNRGKLKKNLIQIADKYLTENGKDNFVVSIGYGYDAIEGVAFKDEVEAGLGVKLNGDTNVEIGVITAVHTGPHAIGIGVIQKYETLK | not soluble |
| MYSANPTLGYYVPPLDVNNLTDQQTAISIEHLSLYYQQSRALSDISMRIPKGQVTAFIGPSGCGKSTLLRCINRMNDLVEGTRVEGEVKLHGKNIYHPDVDVPTLRRRVGMVFQRPNPFPKSIYENVVYGLRLQGIKNSRALDDAAEQSLRAAALWDEVKHRLHENAFGLSGGQQQRLVIARAIAIEPEVLLLDEPTSALDPISTLTIEELIHDLKTKYTVVIVTHNMQQAARVSDHTAFIHMGKLIEYADTDSIFTSPLKKQTEDYITGRYG | not soluble |
| MYSAPDFSNNDYKIIMSSQNMKDEKEELMDINKVSEQEMLARKVSKSYVSKIIEYREITGGFDKLEDMKRIKGIGNATYQKLSKVFKVASAPNKKMLNINSADDMTLKYYGLSKKEIKRIQKYLDKNDRITDNIEFKKIVNKKTYERLKDLINYDGGKRLEHHHHHH | soluble |
| MYSDHTQTEAFRGELHGVYGLLFTDGGAPSSAQTSTDFIDASLGVNGYLAADGRGTLAGRVSGVLAGQPAVVGLRNAQAQYWATATGSGDYQINGVRPGRYRMTLYQHELEVAQRDVEVFAGATAQAALQAVSLPGAVKWLEHHHHHH | not soluble |
| MYSFELDKLKIELKTWEHDFIDKNKREPTRDDIKSLRTVRQMYKQYSTLKKKQSLQRQKVDTQESVELPAHKKDHDEVVEIGPTPQVYGKAISIFDMNLSPIKPIYMTFTNNIDVNNDNSKTISNESSPRKTILLKSSPADRTLVAEPISSVKRQLNFQMLNASSTRTPTSSPCKNRNGKLVEIKKCSPTINPPLESGKPSGYYGPNSPLKLDEENIHLNISLNSSTKRRLQIAYPSLQKTPSKDQADISTSFSPSPLIRRPLTKSLIELAREHTEIVKEFGVLQEEDIEEEEEGEEGENGYDEKNHEDDFGLEDELIRPKVVKDIFQEDDDNDDSQAREDTFIRKRPKRRKVIRRLRDNDPETETAGFERDVHKELVKLKRRKVAEFLGSTSQISDTEFEHDPEASSGVVSSEQKPTAKRKGRKKYNLVSNNFRRLKLPKKNRFSNGRWGRR | not soluble |
| MYTLIIPAAGQGKRMGAGKNKLFLLINEVPIIVHTLRAFEKDKACKNIIMAINEEERPYFEELMQKYPVEKPVQFIQGGAERQDSVYNAIQHTTDVEYVLVHDGARPFVTNKVIQDVLTAAEKYGASICAVPVKDTVKKVEQGVVVETVERSQLKAVQTPQGFSVSLLLEAHRSAKQSCFLGTDDASLVERIGKQVGVVEGSYYNIKVTTPEDLLIAESFLHVQKK | not soluble |
| MYTLSAGIWEKFFKKKDYYVVIVGLDNAGKTTFLEQTKSHFVKDYGVLNPSKITATVGLNTGNVELNNTCLHFWDLGGQESLRELWATYYDDANAMIFVVDATRSDLFPIVASQFKEVMANEIVQNIPVLVAVNKSEMEGAAAAAEVRMLLEDDNHRSDLAVLPVSALEGTNIERCVHWIVRSLASQPLYL | not soluble |
| MYVQLSQRLKDVATYVPKGAKLLDVGSDHAYLPIYLLEKGLITSAIAGEVVKGPYESALANVSASGFNDKIDVRLANGLAAFEPYDAVTTITICGMGGRLIADILDAGKDKLKDVDRLILQPNNREDDLRIWLMENGFTIVAEAIMTEN | not soluble |
| NCSKIHLSTKLLAVDFPAHFVKSISCQICEHILADPVETSCKHLFCRICILRCLKVMGSYCPSCRYPCFPTDLESPVKSFLNILNSLMVKCPAQDCNEEVSLEKYNHHVSSHKESK | soluble |
| NDRHIRHDITRPLPFADNSVDAFQAEDVLEHIAYDRIVPVLNEIHRVLKPGAVFRLSVPDYRCDILDARTEKDATGAPVFDPGGGGTRENPGHAWFPRYETVKTLVEKSNFGTAGEISFLHYYDEHNLPAMREIDYAKGFIQRPPDHDPRVQTPYRPMSLVVDLTKRDVRIFSSFNNSASHA | not soluble |
| NECVSKGFGCLPQSDCPQEARLSYGGCSTVCCDLSKLTGCKGKGGECNPLDRQCKELQAESASCGKGQKCCVWLH | soluble |
| NEKETISYIINTSKNIVIFALSPDKTKASYRVAEFLQRKNYKIFPIYPKEEFILNEKVYRNLDQIEEKIDTLILFRKGEVALEILPKLVEKNIKNLWLQLDISNETAKEECKKLDINFIQNRCIMLEYPHFK | not soluble |
| NEKFRPEMLQGKKVIVTGASKGIGREIAYHLAKMGAHVVVTARSKEALQKVVARCLELGAASAHYIAGSMEDMTFAEEFVAEAGNLMGGLDMLILNHVLYNRLTFFHGEIDNVRKSMEVNFHSFVVLSVAAMPMLMQSQGSIAVVSSVAGKITYPLIAPYSASKFALDGFFSTLRSEFLVNKVNVSITLCILGLIDTETAIKATSGIYLGPASPKEECALEIIKGTALRQDEMYYVGSRWVPYLLGNPGRKIMEFLSAAEYNWDNVLSNEKLYGRWA | soluble |
| NKDMSFVIRGNFTYSKNKIDNWEQIEQKYAYQNFSGWPYGIQRGYIALGLFRDEADINNSPIQTFGNYEAGDIKYKDVNGDGRIDIDDQVPLSYDNYPRLMYGFGGEFRYKNLTFNILFKGIGKKDFFYTSEDSGFGYYPFLYGETGNVLSIVANSSNRWIPASYSGDPSTENPNARFPRLSYGKNSNNTQKSTFWKANGQYLRLQEISVGYNLKLKAFSKIGVSSIDLQLVGQDLYVWDKIGGLWDPEQTTKNGRAYPIPATYSLQMYINF | not soluble |
| NKDWTLAIRGNITYNKDKWIEGELPEQRYDWMNQYGQNILGKKGYIAEGLFTQAEIDDMARWESLSQANKATTPKPFASQFGTVKAGDIKYKDLNNDGQIDAYDKTYICRGDVPTMVYGFGFTLGWKNLSLGMMFQGTHDAERIMSGSSIQPFNGGGGSGNLYSNIDDRWTEDNPNQNAFYPRLSYGAETSSNINNFQPSTWWVRDFSFLRLKTMQISYNLPKDWVNKVRLKNAAVYVMGTNLFTLSKFKLWDPELNTDNGASYPNTTSYSVGVNFTF | not soluble |
| NKNFSWNTDWTYSLNREKIKALNSGVTRDEGNLWFVGSPTQVFYDYKKIGIWQLGEEVQAKAFGGFKPGDIKVADMSPKGSEGEGVFSTDDRVIFSRVPKYTFGITNNIIYKNFDLMFFIYGRIGQYVKDAYTQLYKPSALENSAPVNYWTPENPSNEYPRPNSGYSTNSYLLQSSLAFRKASFVKIRDITLGYTLPKEWTSKMMVQKLRIYCSLNNFITFTDFPNYDPESNGSMDFPLAKQVLFGINLSL | not soluble |
| NKNWFVSFKGTFTYAHNEITQYDESPKYPWQSKIGVSANKNAIYIADGLFIDAADIANHQQQLGAAVIPGDIKYINISRDWYGYDDNLTDTDDWVWAKHPGVPEIVYGFGPSIKWKNLDFSFFFQGIARTSFMVKDFHPFGDSMLRNVLSWVADERWSPDNQNTNATYPRLSRKTNNNNNKLSSYWERNGAFLKLKNAEIGYTYKNMRLYISGSNLMTFAPFDLWDPEQGGGSGLSYPTQRVFNIGFQMTINNK | not soluble |
| NLPNIVILATGGTIAGSAAANTQTTGYKAGALGVETLIQAVPELKTLANIKGEQVASIGSENMTSDVLLTLSKRVNELLARSDVDGVVITHGTDTLDESPYFLNLTVKSDKPVVFVAAMRPATAISADGPMNLYGAVKVAADKNSRGRGVLVVLNDRIGSARFISKTNASTLDTFKAPEEGYLGVIIGDKIYYQTRLDKVHTTRSVFDVTNVDKLPAVDIIYGYQDDPEYMYDASIKHGVKGIVYAGMGAGSVSKRGDAGIRKAESKGIVVVRSSRTGSGIVPPDAGQPGLVADSLSPAKSRILLMLALTKTTNPAVIQDYFHAY | soluble |

From the DeepSol protein solubility set
